# Experimental data as given in patent US20220041754A1 (CRISPR THERAPEUTICS, published 2022).
# B1: mouse anti-CD70-scFv monoclonal antibody 20H05-02D09 (antibody, mouse IgG1, kappa, V domains shown)
# VH: QIQLVQSGPELKKPGETVKISCKASGYTFTNYGMHWVKQAPGKVLKWMGWINTYSGVPTYPDDFKGRFAFSLETSASTASLQINNLKNEDTATYFCATERLRGWFPFWGQGTLVTVSA
# VL: QIVLTQSPAIMSASPGEKVTISCSASSSVSYMYWYQQKPGSSPKPWIYRTSNLASGVPARFSGSGSGTSYSLTISSMEAEDAATYYCQQYHSYPPTFGGGTKLEIKR
# notes: also called 20H05-2D09; native 20H05-2D09
# B2: APC conjugated 20H05 (antibody, mouse IgG1, kappa, V domains shown)
# VH: B1 VH
# VL: B1 VL
# modifications: conjugated with APC (allophycocyanin); site and chain not stated
# notes: also called direct APC conjugated antibody
# B3: biotin conjugated 20H05 (antibody, mouse IgG1, kappa, V domains shown)
# VH: B1 VH
# VL: B1 VL
# modifications: conjugated with biotin; site and chain not stated
# Columns and labels:
# [1] = target: T1, anti-CD70 CAR of SEQ ID NO: 6; test: flow cytometry, antibody dilution 1:50, cell population with about 65.4% anti-CD70 CAR+ cells
# T1 construct: also called anti-CD70 CAR T cells; anti-CD70 chimeric antigen receptor
# T1 sequence (chain, as listed by the source limits assumed): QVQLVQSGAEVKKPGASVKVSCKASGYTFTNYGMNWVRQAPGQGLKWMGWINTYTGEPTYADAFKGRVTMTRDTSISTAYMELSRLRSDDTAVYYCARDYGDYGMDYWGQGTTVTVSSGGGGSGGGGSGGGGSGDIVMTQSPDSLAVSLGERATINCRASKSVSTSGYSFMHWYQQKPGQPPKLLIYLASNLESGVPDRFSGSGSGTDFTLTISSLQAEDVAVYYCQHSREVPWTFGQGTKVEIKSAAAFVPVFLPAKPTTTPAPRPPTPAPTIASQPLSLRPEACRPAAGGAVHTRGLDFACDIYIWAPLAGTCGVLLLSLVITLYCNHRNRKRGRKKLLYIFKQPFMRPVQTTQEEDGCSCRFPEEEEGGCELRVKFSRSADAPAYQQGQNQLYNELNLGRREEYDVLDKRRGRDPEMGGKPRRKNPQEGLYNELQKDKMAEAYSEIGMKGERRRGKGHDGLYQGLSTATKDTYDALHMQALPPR
# [2] = target: T1, anti-CD70 CAR of SEQ ID NO: 6; test: flow cytometry, antibody dilution 1:800, cell population with about 65.4% anti-CD70 CAR+ cells
# [3] = target: T1, anti-CD70 CAR of SEQ ID NO: 6; test: flow cytometry, antibody dilution 1:200, cell population with about 65.4% anti-CD70 CAR+ cells
# [4] = target: T1, anti-CD70 CAR of SEQ ID NO: 6; test: flow cytometry, antibody dilution 1:100, cell population with about 65.4% anti-CD70 CAR+ cells
# [5] = target: T2, anti-CD19 CAR SEQ ID NO: 8; test: flow cytometry on anti-CD19 CAR T cells, antibody at fold dilutions 100 to 12800, % CAR positive cells
# T2 construct: also called anti-CD19 CAR T cells
# Procedure: (§1) The purified 20H05-02D09 antibody was analyzed by flow cytometry for binding to CAR T cells expressing the anti-CD70 CAR of SEQ ID NO: 6 (anti-CD70 CAR T cells). CAR T cells expressing an anti-BCMA CAR of SEQ ID NO: 7 (anti-BCMA CAR T cells) or an anti-CD19 CAR SEQ ID NO: 8 (anti-CD19 CAR T cells) were used as negative controls. Anti-CD70-scFv antibody (20H05-02D09) was analyzed at various dilutions (FIG. 2).
# [6] = target: T1, anti-CD70 CAR of SEQ ID NO: 6; test: flow cytometry, antibody dilution 1:1600, cell population with about 65.4% anti-CD70 CAR+ cells
# [7] = target: T1, anti-CD70 CAR of SEQ ID NO: 6; test: flow cytometry, antibody dilution 1:6400, cell population with about 65.4% anti-CD70 CAR+ cells
# [8] = target: T3, anti-BCMA CAR of SEQ ID NO: 7; test: flow cytometry on anti-BCMA CAR T cells, antibody at fold dilutions 100 to 12800, % CAR positive cells
# T3 construct: also called anti-BCMA CAR T cells
# T3 sequence (chain, as listed by the source limits assumed): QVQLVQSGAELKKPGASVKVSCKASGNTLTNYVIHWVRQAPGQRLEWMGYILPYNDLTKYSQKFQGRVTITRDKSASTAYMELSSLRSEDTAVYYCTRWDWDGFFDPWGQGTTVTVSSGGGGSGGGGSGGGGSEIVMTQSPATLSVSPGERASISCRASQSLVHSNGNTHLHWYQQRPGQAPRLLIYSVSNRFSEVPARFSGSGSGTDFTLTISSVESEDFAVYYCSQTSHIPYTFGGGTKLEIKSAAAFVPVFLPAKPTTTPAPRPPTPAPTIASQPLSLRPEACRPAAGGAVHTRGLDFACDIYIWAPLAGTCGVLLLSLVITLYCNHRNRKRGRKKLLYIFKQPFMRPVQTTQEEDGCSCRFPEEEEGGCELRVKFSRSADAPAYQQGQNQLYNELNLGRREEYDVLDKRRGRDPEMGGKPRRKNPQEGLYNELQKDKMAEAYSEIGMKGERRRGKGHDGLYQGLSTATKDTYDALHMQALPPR
# Procedure: as §1
# [9] = target: T1, anti-CD70 CAR of SEQ ID NO: 6; test: flow cytometry, antibody dilution 1:3200, cell population with about 65.4% anti-CD70 CAR+ cells
# [10] = target: T1, anti-CD70 CAR of SEQ ID NO: 6; test: flow cytometry, antibody dilution 1:400, cell population with about 65.4% anti-CD70 CAR+ cells
Binder,percentage of anti-CD70 CAR+ cells [1] [%],percentage of anti-CD70 CAR+ cells [2] [%],percentage of anti-CD70 CAR+ cells [3] [%],percentage of anti-CD70 CAR+ cells [4] [%],binding result [5],percentage of anti-CD70 CAR+ cells [6] [%],percentage of anti-CD70 CAR+ cells [7] [%],binding result [8],percentage of anti-CD70 CAR+ cells [9] [%],percentage of anti-CD70 CAR+ cells [10] [%]
B1,67.7,66.5,68.3,67.5,no binding,65.4,66.5,no binding,67.8,67.2
B2,60.8,61.5,61.7,61.3,,61.4,62.4,,62.7,61.8
B3,66.3,67,67.6,65.9,,66.4,65.3,,66.2,66.4
